Reference: patent US20180155451A1 (published 2018)

T1: FcγRIIb (human, UniProt P31994 43-217)
T1 construct: extracellular domain; also called 2b; FcgRIIb
T1 sequence (looked up): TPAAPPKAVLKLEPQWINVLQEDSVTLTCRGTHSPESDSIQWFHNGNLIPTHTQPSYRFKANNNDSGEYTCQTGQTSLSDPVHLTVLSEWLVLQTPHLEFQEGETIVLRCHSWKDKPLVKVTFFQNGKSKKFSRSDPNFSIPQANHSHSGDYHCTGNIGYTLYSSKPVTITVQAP

B1: GpH7-B3 variant G237_13S/GpL16-k0 (antibody, human IgG1, kappa)
heavy: not shown
light: DIVMTQSPLSLPVTPGEPASISCQASESLVHSNRNTYLHWYLQKPGQSPQLLIYKVSNRFSGVPDRFSGSGSGTDFTLKISRVEAEDVGVYYCSQNTHVPPTFGQGTKVEIERTVAAPSVFIFPPSDEQLKSGTASVVCLLNNFYPREAKVQWKVDNALQSGNSQESVTEQDSKDSTYSLSSTLTLSKADYEKHKVYACEVTHQGLSSPVTKSFNRGEC
notes: also called Ho Ab G237_13S
B2: GpH7-B3 variant L234_20W/GpL16-k0 (antibody, human IgG1, kappa)
heavy: not shown
light: B1 light
notes: also called Ho Ab L234_20W
B3: GpH7-B3 variant I336_06M/GpL16-k0 (antibody, human IgG1, kappa)
heavy: not shown
light: B1 light
notes: also called Ho Ab I336_06M
B4: GpH7-B3 variant P238_04F/GpL16-k0 (antibody, human IgG1, kappa)
heavy: not shown
light: B1 light
notes: also called Ho Ab P238_04F
B5: GpH7-B3 variant N325_03V/GpL16-k0 (antibody, human IgG1, kappa)
heavy: not shown
light: B1 light
notes: also called Ho Ab N325_03V
B6: GpH7-B3 variant P331_07I/GpL16-k0 (antibody, human IgG1, kappa)
heavy: not shown
light: B1 light
notes: also called Ho Ab P331_07I
B7: GpH7-B3 variant P271_10E/GpL16-k0 (antibody, human IgG1, kappa)
heavy: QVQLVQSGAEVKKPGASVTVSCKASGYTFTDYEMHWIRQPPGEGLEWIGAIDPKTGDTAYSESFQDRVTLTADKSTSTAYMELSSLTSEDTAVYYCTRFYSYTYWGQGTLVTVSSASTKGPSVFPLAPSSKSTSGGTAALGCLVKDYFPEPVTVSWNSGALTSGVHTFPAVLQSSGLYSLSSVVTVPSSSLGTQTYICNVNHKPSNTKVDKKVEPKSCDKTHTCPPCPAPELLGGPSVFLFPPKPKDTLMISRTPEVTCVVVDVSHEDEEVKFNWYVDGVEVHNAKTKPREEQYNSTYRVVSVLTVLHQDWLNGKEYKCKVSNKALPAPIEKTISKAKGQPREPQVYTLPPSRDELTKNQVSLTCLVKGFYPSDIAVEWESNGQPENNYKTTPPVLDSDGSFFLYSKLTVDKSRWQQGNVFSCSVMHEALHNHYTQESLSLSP
light: B1 light
notes: also called Ho Ab P271_10E
B8: GpH7-B3 variant P238_19Q/GpL16-k0 (antibody, human IgG1, kappa)
heavy: not shown
light: B1 light
notes: also called Ho Ab P238_19Q
B9: GpH7-B3 variant S239_03V/GpL16-k0 (antibody, human IgG1, kappa)
heavy: not shown
light: B1 light
notes: also called Ho Ab S239_03V
B10: GpH7-B3 variant P238_06M/GpL16-k0 (antibody, human IgG1, kappa)
heavy: not shown
light: B1 light
notes: also called Ho Ab P238_06M
B11: GpH7-B3 variant K326_20W/GpL16-k0 (antibody, human IgG1, kappa)
heavy: not shown
light: B1 light
notes: also called Ho Ab K326_20W
B12: GpH7-B3 variant N325_20W/GpL16-k0 (antibody, human IgG1, kappa)
heavy: not shown
light: B1 light
notes: also called Ho Ab N325_20W
B13: GpH7-B3 variant H268_03V/GpL16-k0 (antibody, human IgG1, kappa)
heavy: not shown
light: B1 light
notes: also called Ho Ab H268_03V
B14: GpH7-B3 variant K326_07I/GpL16-k0 (antibody, human IgG1, kappa)
heavy: not shown
light: B1 light
notes: also called Ho Ab K326_07I
B15: GpH7-B3 variant N325_06M/GpL16-k0 (antibody, human IgG1, kappa)
heavy: not shown
light: B1 light
notes: also called Ho Ab N325_06M
B16: GpH7-B3 variant L235_04F/GpL16-k0 (antibody, human IgG1, kappa)
heavy: not shown
light: B1 light
notes: also called Ho Ab L235_04F
B17: GpH7-B3 variant P271_09D/GpL16-k0 (antibody, human IgG1, kappa)
heavy: not shown
light: B1 light
notes: also called Ho Ab P271_09D
B18: GpH7-B3 variant S239_06M/GpL16-k0 (antibody, human IgG1, kappa)
heavy: not shown
light: B1 light
notes: also called Ho Ab S239_06M
B19: GpH7-B3 variant P331_15Y/GpL16-k0 (antibody, human IgG1, kappa)
heavy: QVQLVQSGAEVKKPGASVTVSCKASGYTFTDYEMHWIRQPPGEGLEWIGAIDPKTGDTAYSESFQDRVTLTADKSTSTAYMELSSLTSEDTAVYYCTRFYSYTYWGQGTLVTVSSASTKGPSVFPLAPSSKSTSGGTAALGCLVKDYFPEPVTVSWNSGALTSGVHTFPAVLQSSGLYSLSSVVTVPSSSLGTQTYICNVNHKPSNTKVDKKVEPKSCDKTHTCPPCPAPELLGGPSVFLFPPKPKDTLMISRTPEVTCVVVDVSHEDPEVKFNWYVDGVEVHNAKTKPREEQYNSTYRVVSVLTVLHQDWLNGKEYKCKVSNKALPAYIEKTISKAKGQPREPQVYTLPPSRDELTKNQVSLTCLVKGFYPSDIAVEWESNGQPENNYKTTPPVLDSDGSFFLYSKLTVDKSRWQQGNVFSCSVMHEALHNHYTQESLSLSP
light: B1 light
notes: also called Ho Ab P331_15Y
B20: GpH7-B3 variant P331_06M/GpL16-k0 (antibody, human IgG1, kappa)
heavy: not shown
light: B1 light
notes: also called Ho Ab P331_06M
B21: GpH7-B3 variant H268_15Y/GpL16-k0 (antibody, human IgG1, kappa)
heavy: not shown
light: B1 light
notes: also called Ho Ab H268_15Y
B22: GpH7-B3 variant P238_09D/GpL16-k0 (antibody, human IgG1, kappa)
heavy: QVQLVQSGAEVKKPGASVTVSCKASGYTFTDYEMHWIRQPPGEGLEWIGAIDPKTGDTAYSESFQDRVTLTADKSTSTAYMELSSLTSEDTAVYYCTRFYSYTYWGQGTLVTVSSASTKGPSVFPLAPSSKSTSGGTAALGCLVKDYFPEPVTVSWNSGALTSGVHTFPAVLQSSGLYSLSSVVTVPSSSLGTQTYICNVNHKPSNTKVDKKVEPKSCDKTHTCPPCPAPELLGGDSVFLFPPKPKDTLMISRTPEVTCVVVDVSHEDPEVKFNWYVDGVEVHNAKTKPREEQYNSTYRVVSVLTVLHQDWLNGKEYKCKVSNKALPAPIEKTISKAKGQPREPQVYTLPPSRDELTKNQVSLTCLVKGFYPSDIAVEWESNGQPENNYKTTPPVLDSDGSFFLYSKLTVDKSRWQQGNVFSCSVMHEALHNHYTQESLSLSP
light: B1 light
notes: also called Ho Ab P238_09D
B23: GpH7-B3 variant P238_10E/GpL16-k0 (antibody, human IgG1, kappa)
heavy: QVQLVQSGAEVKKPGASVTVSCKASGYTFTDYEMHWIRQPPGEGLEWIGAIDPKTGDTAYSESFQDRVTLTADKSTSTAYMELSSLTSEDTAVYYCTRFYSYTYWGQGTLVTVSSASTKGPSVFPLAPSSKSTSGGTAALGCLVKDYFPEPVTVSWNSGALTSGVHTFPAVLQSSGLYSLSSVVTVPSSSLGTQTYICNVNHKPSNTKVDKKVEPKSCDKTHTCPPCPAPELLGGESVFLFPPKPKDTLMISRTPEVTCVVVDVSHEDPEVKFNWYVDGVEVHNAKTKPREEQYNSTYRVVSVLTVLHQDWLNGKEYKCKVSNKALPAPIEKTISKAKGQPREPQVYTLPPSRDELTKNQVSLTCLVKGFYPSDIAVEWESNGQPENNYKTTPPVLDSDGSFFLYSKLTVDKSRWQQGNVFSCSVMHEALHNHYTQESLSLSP
light: B1 light
notes: also called Ho Ab P238_10E
B24: GpH7-B3 variant L328_09D/GpL16-k0 (antibody, human IgG1, kappa)
heavy: not shown
light: B1 light
notes: also called Ho Ab L328_09D
B25: GpH7-B3 variant N325_09D/GpL16-k0 (antibody, human IgG1, kappa)
heavy: not shown
light: B1 light
notes: also called Ho Ab N325_09D
B26: GpH7-B3 variant L328_10E/GpL16-k0 (antibody, human IgG1, kappa)
heavy: not shown
light: B1 light
notes: also called Ho Ab L328_10E
B27: GpH7-B3 variant L235_09D/GpL16-k0 (antibody, human IgG1, kappa)
heavy: not shown
light: B1 light
notes: also called Ho Ab L235_09D
B28: GpH7-B3 variant N325_08L/GpL16-k0 (antibody, human IgG1, kappa)
heavy: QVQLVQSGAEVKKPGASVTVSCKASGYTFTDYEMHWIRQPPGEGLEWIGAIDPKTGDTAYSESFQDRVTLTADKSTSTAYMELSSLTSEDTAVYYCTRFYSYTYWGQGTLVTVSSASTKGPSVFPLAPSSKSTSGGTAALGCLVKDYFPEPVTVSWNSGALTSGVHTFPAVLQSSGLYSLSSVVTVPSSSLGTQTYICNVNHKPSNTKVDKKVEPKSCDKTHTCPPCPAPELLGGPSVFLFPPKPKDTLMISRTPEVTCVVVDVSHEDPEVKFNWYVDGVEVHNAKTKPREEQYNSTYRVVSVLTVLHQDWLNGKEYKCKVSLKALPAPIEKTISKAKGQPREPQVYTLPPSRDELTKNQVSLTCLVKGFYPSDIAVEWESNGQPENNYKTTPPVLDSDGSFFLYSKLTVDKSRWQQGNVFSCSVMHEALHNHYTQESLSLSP
light: B1 light
notes: also called Ho Ab N325_08L
B29: GpH7-B3 variant S239_05P/GpL16-k0 (antibody, human IgG1, kappa)
heavy: not shown
light: B1 light
notes: also called Ho Ab S239_05P
B30: GpH7-B3 variant I336_08L/GpL16-k0 (antibody, human IgG1, kappa)
heavy: not shown
light: B1 light
notes: also called Ho Ab I336_08L
B31: GpH7-B3 variant L234_09D/GpL16-k0 (antibody, human IgG1, kappa)
heavy: not shown
light: B1 light
notes: also called Ho Ab L234_09D
B32: GpH7-B3 variant P331_16H/GpL16-k0 (antibody, human IgG1, kappa)
heavy: not shown
light: B1 light
notes: also called Ho Ab P331_16H
B33: GpH7-B3 variant L234_10E/GpL16-k0 (antibody, human IgG1, kappa)
heavy: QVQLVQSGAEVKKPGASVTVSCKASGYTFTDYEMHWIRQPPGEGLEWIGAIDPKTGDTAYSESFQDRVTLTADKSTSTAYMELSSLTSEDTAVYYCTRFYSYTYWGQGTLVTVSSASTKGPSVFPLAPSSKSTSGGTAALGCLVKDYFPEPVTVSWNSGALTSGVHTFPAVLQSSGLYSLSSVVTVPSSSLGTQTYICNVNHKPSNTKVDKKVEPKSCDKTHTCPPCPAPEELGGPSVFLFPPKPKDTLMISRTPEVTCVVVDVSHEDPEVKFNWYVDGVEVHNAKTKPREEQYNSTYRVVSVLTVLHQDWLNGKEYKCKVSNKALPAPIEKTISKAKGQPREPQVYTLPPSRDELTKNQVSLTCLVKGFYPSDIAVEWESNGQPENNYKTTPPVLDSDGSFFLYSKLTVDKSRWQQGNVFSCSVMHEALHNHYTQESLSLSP
light: B1 light
notes: also called Ho Ab L234_10E
B34: GpH7-B3 variant P238_03V/GpL16-k0 (antibody, human IgG1, kappa)
heavy: not shown
light: B1 light
notes: also called Ho Ab P238_03V
B35: GpH7-B3 variant L328_13S/GpL16-k0 (antibody, human IgG1, kappa)
heavy: not shown
light: B1 light
notes: also called Ho Ab L328_13S
B36: GpH7-B3 variant L328_02A/GpL16-k0 (antibody, human IgG1, kappa)
heavy: not shown
light: B1 light
notes: also called Ho Ab L328_02A
B37: GpH7-B3 variant G237_18N/GpL16-k0 (antibody, human IgG1, kappa)
heavy: not shown
light: B1 light
notes: also called Ho Ab G237_18N
B38: GpH7-B3 variant N325_13S/GpL16-k0 (antibody, human IgG1, kappa)
heavy: not shown
light: B1 light
notes: also called Ho Ab N325_13S
B39: GpH7-B3 variant H268_05P/GpL16-k0 (antibody, human IgG1, kappa)
heavy: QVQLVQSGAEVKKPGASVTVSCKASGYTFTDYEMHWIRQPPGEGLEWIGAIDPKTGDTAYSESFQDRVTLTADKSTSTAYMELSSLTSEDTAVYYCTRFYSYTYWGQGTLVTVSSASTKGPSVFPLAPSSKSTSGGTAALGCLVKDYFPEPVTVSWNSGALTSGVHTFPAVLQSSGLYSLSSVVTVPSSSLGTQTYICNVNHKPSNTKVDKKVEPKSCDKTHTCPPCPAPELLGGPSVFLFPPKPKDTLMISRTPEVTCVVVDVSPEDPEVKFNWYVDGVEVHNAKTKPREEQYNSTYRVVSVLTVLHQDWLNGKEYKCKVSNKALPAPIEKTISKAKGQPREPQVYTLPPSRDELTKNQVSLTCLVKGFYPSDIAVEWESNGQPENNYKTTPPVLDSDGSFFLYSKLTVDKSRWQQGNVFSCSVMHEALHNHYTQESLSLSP
light: B1 light
notes: also called Ho Ab H268_05P
B40: GpH7-B3 variant L235_20W/GpL16-k0 (antibody, human IgG1, kappa)
heavy: not shown
light: B1 light
notes: also called Ho Ab L235_20W
B41: GpH7-B3 variant P238_20W/GpL16-k0 (antibody, human IgG1, kappa)
heavy: not shown
light: B1 light
notes: also called Ho Ab P238_20W
B42: GpH7-B3 variant G237_15Y/GpL16-k0 (antibody, human IgG1, kappa)
heavy: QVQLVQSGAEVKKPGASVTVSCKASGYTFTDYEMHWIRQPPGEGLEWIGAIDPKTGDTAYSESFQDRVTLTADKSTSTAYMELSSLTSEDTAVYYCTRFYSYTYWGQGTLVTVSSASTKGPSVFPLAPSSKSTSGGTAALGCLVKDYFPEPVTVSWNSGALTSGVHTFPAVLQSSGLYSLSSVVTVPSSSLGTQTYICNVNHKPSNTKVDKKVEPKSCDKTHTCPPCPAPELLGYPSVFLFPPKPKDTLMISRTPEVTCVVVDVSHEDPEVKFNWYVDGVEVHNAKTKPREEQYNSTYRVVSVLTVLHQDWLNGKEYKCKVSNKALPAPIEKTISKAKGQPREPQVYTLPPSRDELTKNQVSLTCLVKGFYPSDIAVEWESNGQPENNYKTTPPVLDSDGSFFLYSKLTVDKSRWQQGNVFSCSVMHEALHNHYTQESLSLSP
light: B1 light
notes: also called Ho Ab G237_15Y
B43: GpH7-B3 variant G237_19Q/GpL16-k0 (antibody, human IgG1, kappa)
heavy: not shown
light: B1 light
notes: also called Ho Ab G237_19Q
B44: GpH7-B3 variant N325_04F/GpL16-k0 (antibody, human IgG1, kappa)
heavy: not shown
light: B1 light
notes: also called Ho Ab N325_04F
B45: GpH7-B3 variant P238_16H/GpL16-k0 (antibody, human IgG1, kappa)
heavy: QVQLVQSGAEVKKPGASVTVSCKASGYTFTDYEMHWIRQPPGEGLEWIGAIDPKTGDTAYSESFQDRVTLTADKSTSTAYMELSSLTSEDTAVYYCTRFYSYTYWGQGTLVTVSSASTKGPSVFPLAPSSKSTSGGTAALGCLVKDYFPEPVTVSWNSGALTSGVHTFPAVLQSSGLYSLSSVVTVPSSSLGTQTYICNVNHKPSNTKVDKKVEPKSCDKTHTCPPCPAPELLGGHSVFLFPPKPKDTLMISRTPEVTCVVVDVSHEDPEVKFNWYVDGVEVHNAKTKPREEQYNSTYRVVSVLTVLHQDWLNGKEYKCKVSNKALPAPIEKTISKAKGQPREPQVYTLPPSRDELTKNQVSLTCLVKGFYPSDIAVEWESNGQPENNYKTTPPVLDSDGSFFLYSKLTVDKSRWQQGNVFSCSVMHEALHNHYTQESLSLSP
light: B1 light
notes: also called Ho Ab P238_16H
B46: GpH7-B3 variant K326_08L/GpL16-k0 (antibody, human IgG1, kappa)
heavy: not shown
light: B1 light
notes: also called Ho Ab K326_08L
B47: GpH7-B3 variant I332_14T/GpL16-k0 (antibody, human IgG1, kappa)
heavy: not shown
light: B1 light
notes: also called Ho Ab I332_14T
B48: GpH7-B3 variant N325_01G/GpL16-k0 (antibody, human IgG1, kappa)
heavy: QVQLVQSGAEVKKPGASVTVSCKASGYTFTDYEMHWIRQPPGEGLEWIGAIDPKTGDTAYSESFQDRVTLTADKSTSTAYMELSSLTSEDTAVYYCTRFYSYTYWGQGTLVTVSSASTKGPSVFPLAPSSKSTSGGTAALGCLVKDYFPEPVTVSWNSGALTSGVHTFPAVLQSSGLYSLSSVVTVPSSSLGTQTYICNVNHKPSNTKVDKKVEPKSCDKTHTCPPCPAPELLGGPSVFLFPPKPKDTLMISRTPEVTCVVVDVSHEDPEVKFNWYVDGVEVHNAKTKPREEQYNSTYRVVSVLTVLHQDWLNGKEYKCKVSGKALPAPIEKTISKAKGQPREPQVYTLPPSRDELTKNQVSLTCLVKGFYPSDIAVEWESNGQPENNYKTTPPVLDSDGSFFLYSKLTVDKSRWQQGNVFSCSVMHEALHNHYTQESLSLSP
light: B1 light
notes: also called Ho Ab N325_01G
B49: GpH7-B3 variant P331_03V/GpL16-k0 (antibody, human IgG1, kappa)
heavy: not shown
light: B1 light
notes: also called Ho Ab P331_03V
B50: GpH7-B3 variant N325_07I/GpL16-k0 (antibody, human IgG1, kappa)
heavy: not shown
light: B1 light
notes: also called Ho Ab N325_07I
B51: GpH7-B3 variant I332_02A/GpL16-k0 (antibody, human IgG1, kappa)
heavy: not shown
light: B1 light
notes: also called Ho Ab I332_02A
B52: GpH7-B3 variant L235_15Y/GpL16-k0 (antibody, human IgG1, kappa)
heavy: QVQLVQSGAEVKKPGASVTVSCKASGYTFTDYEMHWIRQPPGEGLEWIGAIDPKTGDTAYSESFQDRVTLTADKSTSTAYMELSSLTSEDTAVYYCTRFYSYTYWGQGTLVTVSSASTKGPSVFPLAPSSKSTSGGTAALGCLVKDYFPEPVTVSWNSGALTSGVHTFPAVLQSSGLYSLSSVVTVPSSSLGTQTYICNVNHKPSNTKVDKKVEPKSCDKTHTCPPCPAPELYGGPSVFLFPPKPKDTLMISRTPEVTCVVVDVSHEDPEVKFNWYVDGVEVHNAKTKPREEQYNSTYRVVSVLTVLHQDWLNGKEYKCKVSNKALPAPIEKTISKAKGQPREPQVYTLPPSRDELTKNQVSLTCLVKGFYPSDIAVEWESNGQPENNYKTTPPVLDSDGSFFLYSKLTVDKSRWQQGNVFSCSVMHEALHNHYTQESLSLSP
light: B1 light
notes: also called Ho Ab L235_15Y
B53: GpH7-B3 variant P331_20W/GpL16-k0 (antibody, human IgG1, kappa)
heavy: not shown
light: B1 light
notes: also called Ho Ab P331_20W
B54: GpH7-B3 variant P331_10E/GpL16-k0 (antibody, human IgG1, kappa)
heavy: not shown
light: B1 light
notes: also called Ho Ab P331_10E
B55: GpH7-B3 variant P238_15Y/GpL16-k0 (antibody, human IgG1, kappa)
heavy: not shown
light: B1 light
notes: also called Ho Ab P238_15Y
B56: GpH7-B3 variant G237_20W/GpL16-k0 (antibody, human IgG1, kappa)
heavy: not shown
light: B1 light
notes: also called Ho Ab G237_20W

Molecular target: T1, FcγRIIb
Experiment: SPR (Biacore), binding relative to GpH7-B3/GpL16-k0 = 100
Protocol: Analysis of interaction between objective antibody and the FcγR was carried out using Biacore T100 (GE Healthcare). HBS-EP+ (GE Healthcare) was used as the running buffer, and the measurement temperature was set to 25° C. Chips produced by immobilizing the antigen peptide by the amine coupling method to a Series S Sencor Chip CM5 (GE Healthcare), or alternatively, chips produced by allowing preliminarily biotinylated antigen peptides to interact with and immobilize onto a Series S Sensor Chip SA (certified) (GE Healthcare) were used. Antibodies of interest were captured onto an antigen peptide-immobilized chip, and allowed to interact to each FcγR diluted with running buffer. To regenerate and repeatedly use the chip, the antibodies captured on the chip were washed off by reacting 10 mM glycine-HCl, pH 1.5.
The FcγR-binding activity of each antibody was assessed primarily using as an indicator the FcγR-binding activity and dissociation constant for FcγR.

| Binder | Ho/Con_2b |
| --- | --- |
| B1 | 25.7 % of control |
| B2 | 80.6 % of control |
| B3 | 90.1 % of control |
| B4 | 209 % of control |
| B5 | 31.8 % of control |
| B6 | 63.3 % of control |
| B7 | 95 % of control |
| B8 | 42.7 % of control |
| B9 | 108 % of control |
| B10 | 97.1 % of control |
| B11 | 132 % of control |
| B12 | 44 % of control |
| B13 | 109 % of control |
| B14 | 170 % of control |
| B15 | 159 % of control |
| B16 | 111 % of control |
| B17 | 100 % of control |
| B18 | 84.3 % of control |
| B19 | 111 % of control |

| Binder | Ho/Con_2b |
| --- | --- |
| B20 | 71.5 % of control |
| B21 | 104 % of control |
| B22 | 207 % of control |
| B23 | 97.9 % of control |
| B24 | 159 % of control |
| B25 | 77 % of control |
| B26 | 146 % of control |
| B27 | 78.7 % of control |
| B28 | 106 % of control |
| B29 | 61 % of control |
| B30 | 103 % of control |
| B31 | 68.5 % of control |
| B32 | 100 % of control |
| B33 | 54.9 % of control |
| B34 | 96.6 % of control |
| B35 | 147 % of control |
| B36 | 117 % of control |
| B37 | 63.9 % of control |
| B38 | 159 % of control |

| Binder | Ho/Con_2b |
| --- | --- |
| B39 | 109 % of control |
| B40 | 116 % of control |
| B41 | 12.6 % of control |
| B42 | 83.1 % of control |
| B43 | 5.3 % of control |
| B44 | 65.7 % of control |
| B45 | 18.8 % of control |
| B46 | 168 % of control |
| B47 | 106 % of control |
| B48 | 20.2 % of control |
| B49 | 86.6 % of control |
| B50 | 88.2 % of control |
| B51 | 81.8 % of control |
| B52 | 127 % of control |
| B53 | 111 % of control |
| B54 | 92.3 % of control |
| B55 | 114 % of control |
| B56 | 166 % of control |
